The target in test [1] is full-length ComE^D58E from Streptococcus pneumoniae (Streptococcus pneumoniae strain R6). Kind of test: SAXS.
In test [2] the target is isolated REC^D58E domain of ComE (Streptococcus pneumoniae strain R6). Kind of test: SEC. (In gel filtration, larger molecules generally elute earlier.)
Test [3] shares this target. Kind of test: SAXS.

Broadly, the stoichiometry N is a count of units in the complex or per binding partner.

In test [1], “full-length ComE^D58E from Streptococcus pneumoniae (natural protein)” came in with a stoichiometry N of 2.

For the substance “isolated REC^D58E domain of ComE (domain or fragment)”, the stoichiometry N in test [2] and in test [3] was 2 in each case.

Values taken from paper PMC4005675.
